From patent US20230203202A1 (DRAGONFLY THERAPEUTICS, published 2023)
Where a chain is given by its changes, count along the chain named.

T1: human 5T4 on the cell surface (human, UniProt Q13641 32-420)
T1 sequence (looked up): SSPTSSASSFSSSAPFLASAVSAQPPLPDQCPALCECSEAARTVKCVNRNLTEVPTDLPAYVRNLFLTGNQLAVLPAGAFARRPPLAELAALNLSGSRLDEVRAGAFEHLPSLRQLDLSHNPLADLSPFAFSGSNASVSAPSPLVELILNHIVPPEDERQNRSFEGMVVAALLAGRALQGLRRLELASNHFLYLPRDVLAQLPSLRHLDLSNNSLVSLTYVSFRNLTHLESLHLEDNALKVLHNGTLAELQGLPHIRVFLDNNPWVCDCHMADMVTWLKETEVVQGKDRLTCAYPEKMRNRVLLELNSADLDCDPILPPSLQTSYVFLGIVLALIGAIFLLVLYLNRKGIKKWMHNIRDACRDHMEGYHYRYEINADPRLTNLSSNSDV

B1: 10F10 multispecific binding protein (F0) (bispecific antibody, V domains shown)
VH: EVQLQESGGGLVKPGGSRRLSCAASRFTFSDFGMHWVRQAPEKGLEWIAYISSGSSTIYYADTVKGRFTISRDNAKNTLFLQMTSLRSEDTAMYYCASSQSYYRGTLDYWGQGTSVTVSS
VL: DIVLTQSPASLAVTLGQRATISCRASQSVTTSNYNYMHWFHQKPGQPPKLLIKFASNLESGVPARFSGSGSGTDFTLNIHPVEEEDIATYYCQHSWEIPWTFGGGTKLEIK
B2: 8E06 multispecific binding protein (F0) (bispecific antibody, V domains shown)
VH: EVQLQESGAEMVRPGASVKLSCKASGYTFTSYWMHWVKQRPGQGLEWIGKIDSSDSKTQYNQKFKDKATLTVDKSSITVYMELNSLTSEDSAVYYCARGGYLWFAYWGQGTLVTVSA
VL: B1 VL with L4M, T14S, T30S, N33T, N35S, F40Y, H41Q, P47S, K53T, F54Y
notes: also called 08E06

Assays:
[1] = molecular target: T1, human 5T4 on the cell surface; assay: cell-based or functional assay
[2] = molecular target: T1, human 5T4 on the cell surface; assay: flow cytometry on 5T4+ H1975 cells

Binder | lysis of H1975 cells by KHYG-CD16V cells, EC50 [1] [pM] | EC50 [2] [pM] | Max (FOB) [2] [fold over background]
B1 | 59 | 3400 | 17.9
B2 | 510 | > 12000 | 
